Columns and labels:
[1] = target: T1, recombinant MBP-E2 fusion protein (Human papillomavirus type 16, UniProt P03120 1-365, limits assumed); assay: ELISA, plate coated with MBP-E2, purified antibody
T1 construct: The legend says only 'MBP-E2'
T1 sequence: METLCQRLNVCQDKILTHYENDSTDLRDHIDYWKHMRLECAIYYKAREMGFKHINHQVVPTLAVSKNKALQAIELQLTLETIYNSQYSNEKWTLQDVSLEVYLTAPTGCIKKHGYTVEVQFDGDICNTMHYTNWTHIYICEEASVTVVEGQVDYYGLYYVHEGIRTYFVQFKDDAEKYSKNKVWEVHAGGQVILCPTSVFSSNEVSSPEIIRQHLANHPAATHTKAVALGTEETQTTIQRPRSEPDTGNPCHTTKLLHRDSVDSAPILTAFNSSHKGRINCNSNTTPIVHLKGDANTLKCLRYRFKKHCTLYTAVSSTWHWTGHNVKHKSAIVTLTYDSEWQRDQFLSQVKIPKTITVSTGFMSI
Method: ELISA plates coated with recombinant MBP-E2 fusion protein were incubated with purified human monoclonal antibodies.

[2] = target: T2, recombinant MBP-E6 fusion protein (Human papillomavirus type 16, UniProt P03126 1-158); assay: ELISA, plate coated with MBP-E6, purified antibody
T2 construct: The legend says only 'MBP-E6'
T2 sequence (P03126 whole entry, the tested form may be a part): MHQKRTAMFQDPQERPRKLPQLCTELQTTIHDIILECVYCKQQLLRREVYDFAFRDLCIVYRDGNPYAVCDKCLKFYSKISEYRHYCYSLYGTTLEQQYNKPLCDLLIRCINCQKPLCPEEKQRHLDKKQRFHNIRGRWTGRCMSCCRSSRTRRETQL
Method: ELISA plates coated with recombinant MBP-E6 fusion protein were incubated with purified human monoclonal antibodies.

B1: 22-1B10 (antibody, V domains shown)
VH: QVQLVQSGSELRKPGASVTVSCKASGYTFSNHDMSWVRQAPGQGLEWMGWINSNTGNPTYAQGFTGRFVFSLDTSVSTAYLQISSLKSEDTAVYYCAKGGGICSGSRCYSGWFDSWGKGTLVAVSS
VL: QLVLTQSPSASASLGASVKLTCTLSSGHSGYAIAWHQQQPEKGPRYLMKLNSDGTHTKGDGIPDRFSGSSSGAERYLTISSLQSEDEADYYCQTWGTGIQVFGTGTKVTILG
- binding result [1]: binds

B2: 22-E2B2 (antibody, V domains shown)
VH: QVQLVQSGTEVKKPGASVRVSCKASGYTFTEYYLHWVRQAPGQGLEWMGRINPNSGNTNYAQKFNGRVTMTSDTSVNLAYLEVSGLTSDDTAIYYCTRDDSGAFVYWGQGTLVTVSS
VL: ETVLTQSPATLSLSPGERATLSCRSSQVISSYLAWFQQKPGQAPRLLIYDTSNRATGIPARFSGSGSGTDFTLTISSLEPEDFAVYYCQQRTNWPPREKITFGPGTKVDIK
- binding result [1]: binds

B3: 22-E2F7 (antibody, V domains shown)
VH: QVQLVQSGTEVKKPGASVRVSCKASGYSFTEYYLHWVRQAPGQGLEWMGRINPKSGNTNYAQKLNGRVTMTSDTSVNVAYLEVSGLTSDDTAIYYCTRDDNGAFVYWGQGTLVTVSS
VL: ETVLTQSPATLSLSPGERATLSCRSSQVISSYLAWFQQKPGQAPRLLIYDTSNRATGIPARFSGSGSGTDFTLTISSLEPEDFAVYYCQQRINWPPREKITFGPGTKVDIR
- binding result [1]: binds

B4: 22-E2G5 (antibody, V domains shown)
VH: EVQVVESGGGLVQPGGSLRLSCAASGFTVNSKFMTWVRQAPGTGLECVSIIYNDGSTYYADSVKGRFTISRDNSKNTLYLQMNRLRPEDTAVYFCARRAFFGGNDDFDIWGQGTLVTVSS
VL: EIVLTQSPGTLSLSPGDRATLSCRAGQSVSSSFLAWYQQRPGQPPRLLIYGASSRATDIPDRFSGSGSGTDFTLTISRLEPEDFAVYYCHQYSSSLPTFGPGTKVEIK
- binding result [1]: binds

B5: 21-1E2 (antibody, V domains shown)
VH: DVQLAESGGGLVQPGDSLTLSCAASGFIFNNYFMSWVRQTPGKGLEWVSGISANGERSIYADSVKGRFTISRDNSKKTVSLQMNSLSAEDTAIYYCARAGCDSTSCYARVGWFGPWGQGILVTVSS
VL: DVVMTQSPDSLAVSLGERATLNCKSRESVLYTTNNRNYLAWYQQKPGQPPKLLIYWASTRESGVPDRFSGSGSGTDFSLTISSLQAEDVAVYYCQQYLTTPPTFGQGTKVEIK
- binding result [2]: binds

B6: 21-1H3 (antibody, V domains shown)
VH: QVQLVQSGAEVKKPGSSVKVSCKASGGTFANSGVAWVRQAPGQGLEWMGGLIPVFGAADYAQKFRGRLSITADESSTTAFMELDSLRSDDTAVYYCAKDHFTYNKYFSWFDPWGQGTLVIVSS
VL: QTVVTQEPSLSVSPGGTVTLTCALSSGSVSTSYYPSWYQQTPGQAPRTLIYSTNLRSSGVPDRFSGSILGNKAALTITGAQADDECDYYCVLFMGSGISMFGGGTKLTVL
- binding result [2]: binds

B7: 22-E2C5 (antibody, V domains shown)
VH: QVQLVQSGAEVKKPGASVKVSCRTSGYSFTRYYIHWVRQSPGRGLEWMGIIDPNNGGTTSAKTLLGKVSMTRDTSTSTAHLELTSLGPEDTAVYYCAILYSNGLEVWDYWGQGTLVTVSS
VL: SHELTQPPSVSVSPGQTAQITCSGDTLPDNYAYWYQQRSGQAPVLVVYEDNKRPSGIPERFSGSSSGTMATLTISGAQVEDDADYYCYSSDRSNNFFGGGTKLTVLS
- binding result [1]: binds

B8: 22-E2D4 (antibody, V domains shown)
VH: QVQLVQSGAEVKRPGSSVKVSCKASGDNFNNYAFHWVRQAPGQGLEWMGRTIPFLGLTSYSPNIQGRVSISADKSTATAFMEMSGLRSEDTAMYYCASSIRLGDFLYRASYYYSSPLDVWGQGTTVTVSS
VL: EVVLTQSPGTLSLSPGDRATLTCRAGQTISNSYLAWYQQKPGQAPRLLISGVSSRATGIPDRFSGSGSGTDFTLTISRLEPEDFAVYYCQLYGNSPSFGQGTRLEIK
- binding result [1]: binds
